Experimental data from the supplement of paper PMC10065799, “High-throughput profiling of sequence recognition by tyrosine kinases and SH2 domains using bacterial peptide display” (eLife, 2023).

test system: c-Src; test: phosphorylation enrichment, bacterial display (enrichment ratio); higher = better substrate or ligand; peptides without Tyr show the background
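Wherever SH2 binding enrichment of the phosphorylated peptide, bacterial display is given: peptide library displayed on the E. coli surface as eCPX fusions, selected cells deep-sequenced, score is each peptide's frequency after selection divided by its frequency in the input.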
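Wherever phosphorylation enrichment, bacterial display is given: 11-residue human phosphosite peptides and single-mutation variants displayed on the E. coli surface, counted by deep sequencing, each peptide's frequency after selection divided by its frequency in the unselected input library; frequency after pTyr selection over input frequency; kinase dosed for 20-30% of maximal phosphorylation in three min.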

Point of comparison: ASKEPYYVRCI [MYO1D_Y585], phosphorylation enrichment 0.595. Against it:
- EKLQKYFRQNP [EHHADH_Y682_YF] — lower, 0.408
- DLVHPYVHKIL [SF3B1_Y570_R568H] — lower, 0.402
- MGGSVYFSYPD [HIKESHI_Y55] — higher, 3.42
- FSCLPCGRLAY [SLC52A2_Y305_Y305C] — lower, 0.45
- AFLEDYFTSTK [SRC_Y522_E527K] — lower, 0.463
- ERPIRYLNHQL [CEP152_Y268_Q265P] — lower, 0.46
- QKKEEYKMALY [F8_Y1990_R1985Q] — higher, 0.978
- SGVSFYINLCQ [IGF2R_Y2025_N2020S_YF] — lower, 0.522
- NTDETYSIDNE [TUBB2B_Y200_C201S] — higher, 0.726
- LKFAIYFEVRE [LAMA2_Y1258_A1261V_YF] — higher, 0.831
- RPSRQYATLDV [SCAMP3_Y35] — lower, 0.319
- TEAGDYKLCFD [TMED1_Y103] — lower, 0.54
- GGPTFYIDTNA [ACTL6A_Y69_YF] — lower, 0.439
- PRPAGYPSMVS [CACNA1C_Y1832_T1835M] — lower, 0.416
- RGLQVYHKRNA [LRP2_Y2010_R2012K] — lower, 0.497
- TLAHKYHGGGG [HBB_Y146_A141T] — higher, 0.675
- NVGGKYSYLKV [GRM3_Y478] — lower, 0.351
- PELINYHQHNS [BTK_Y361] — higher, 0.68
- SPFMLYQFLKQ [RPAP3_Y567_D564Y_YF] — higher, 0.867
- RFWPRYVKVGS [NOG_Y172] — lower, 0.535
- KAIMTYVPSFF [ACTN4_Y260_S262P_YF] — lower, 0.46
- EASEQHLTKAS [NRCAM_Y739_Y739H] — lower, 0.396
- EACRSYSHVVL [CHST6_Y168] — lower, 0.538
- SDFSSYARTSI [TERT_Y949_YF] — lower, 0.506
- RLYARYFQGDL [PDK3_Y337] — higher, 0.763
- FLAVEYHKPHI [IDS_Y225_G224E] — lower, 0.387
- ETCLAYMEKRI [TEKT1_Y118_R119M] — lower, 0.511
- DFAIVYGTIIL [GPR179_Y460_G455D] — lower, 0.483
- AKGMKYVASKK [MET_Y1194_L1195V] — lower, 0.381
- LWPIWYRCRRP [MRGPRX1_Y130_H133R] — lower, 0.431
- KKMKCYHVGKV [HARS2_Y151_R150C] — lower, 0.408
- PADCRYYAFPQ [GAMT_Y222] — higher, 4.71

target: Grb2 SH2 (UniProt P62993); test: SH2 binding enrichment of the phosphorylated peptide, bacterial display (enrichment ratio); higher = better substrate or ligand; peptides without Tyr show the background
Sequence (P62993 whole entry, looked up): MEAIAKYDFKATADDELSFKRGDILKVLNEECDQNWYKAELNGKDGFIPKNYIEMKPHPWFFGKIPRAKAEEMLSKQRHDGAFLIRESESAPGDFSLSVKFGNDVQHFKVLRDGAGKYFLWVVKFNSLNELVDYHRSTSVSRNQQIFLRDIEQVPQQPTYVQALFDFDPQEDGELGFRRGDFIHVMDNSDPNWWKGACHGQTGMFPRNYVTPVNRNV

Point of comparison: SGVSFYINLCQ [IGF2R_Y2025_N2020S_YF], SH2 binding enrichment 2.21. Against it:
- EKLQKYFRQNP [EHHADH_Y682_YF] — lower, 0.871
- DLVHPYVHKIL [SF3B1_Y570_R568H] — lower, 0.937
- ASKEPYYVRCI [MYO1D_Y585] — lower, 0.702
- MGGSVYFSYPD [HIKESHI_Y55] — lower, 0.978
- FSCLPCGRLAY [SLC52A2_Y305_Y305C] — lower, 1.46
- AFLEDYFTSTK [SRC_Y522_E527K] — lower, 0.947
- ERPIRYLNHQL [CEP152_Y268_Q265P] — lower, 1.18
- QKKEEYKMALY [F8_Y1990_R1985Q] — lower, 0.629
- NTDETYSIDNE [TUBB2B_Y200_C201S] — lower, 0.761
- LKFAIYFEVRE [LAMA2_Y1258_A1261V_YF] — lower, 0.877
- RPSRQYATLDV [SCAMP3_Y35] — lower, 0.899
- TEAGDYKLCFD [TMED1_Y103] — lower, 0.778
- GGPTFYIDTNA [ACTL6A_Y69_YF] — lower, 0.874
- PRPAGYPSMVS [CACNA1C_Y1832_T1835M] — lower, 0.755
- RGLQVYHKRNA [LRP2_Y2010_R2012K] — lower, 0.943
- TLAHKYHGGGG [HBB_Y146_A141T] — lower, 0.567
- NVGGKYSYLKV [GRM3_Y478] — lower, 1.08
- PELINYHQHNS [BTK_Y361] — lower, 1
- SPFMLYQFLKQ [RPAP3_Y567_D564Y_YF] — lower, 1.41
- RFWPRYVKVGS [NOG_Y172] — lower, 0.701
- KAIMTYVPSFF [ACTN4_Y260_S262P_YF] — lower, 0.97
- EASEQHLTKAS [NRCAM_Y739_Y739H] — lower, 0.903
- EACRSYSHVVL [CHST6_Y168] — lower, 0.958
- SDFSSYARTSI [TERT_Y949_YF] — lower, 0.7
- RLYARYFQGDL [PDK3_Y337] — lower, 0.889
- FLAVEYHKPHI [IDS_Y225_G224E] — lower, 1.32
- ETCLAYMEKRI [TEKT1_Y118_R119M] — lower, 0.67
- DFAIVYGTIIL [GPR179_Y460_G455D] — lower, 0.591
- AKGMKYVASKK [MET_Y1194_L1195V] — lower, 0.969
- LWPIWYRCRRP [MRGPRX1_Y130_H133R] — lower, 0.565
- KKMKCYHVGKV [HARS2_Y151_R150C] — lower, 1.35
- PADCRYYAFPQ [GAMT_Y222] — lower, 0.898

target: SHP2-C SH2; test: as above

Point of comparison: NTDETYSIDNE [TUBB2B_Y200_C201S], SH2 binding enrichment 0.547. Against it:
- EKLQKYFRQNP [EHHADH_Y682_YF] — higher, 0.761
- DLVHPYVHKIL [SF3B1_Y570_R568H] — higher, 0.983
- ASKEPYYVRCI [MYO1D_Y585] — lower, 0.391
- MGGSVYFSYPD [HIKESHI_Y55] — higher, 1.94
- FSCLPCGRLAY [SLC52A2_Y305_Y305C] — higher, 1.34
- AFLEDYFTSTK [SRC_Y522_E527K] — higher, 1.07
- ERPIRYLNHQL [CEP152_Y268_Q265P] — higher, 0.627
- QKKEEYKMALY [F8_Y1990_R1985Q] — higher, 0.565
- SGVSFYINLCQ [IGF2R_Y2025_N2020S_YF] — higher, 1.32
- LKFAIYFEVRE [LAMA2_Y1258_A1261V_YF] — higher, 1.11
- RPSRQYATLDV [SCAMP3_Y35] — higher, 6.79
- TEAGDYKLCFD [TMED1_Y103] — higher, 0.636
- GGPTFYIDTNA [ACTL6A_Y69_YF] — higher, 0.608
- PRPAGYPSMVS [CACNA1C_Y1832_T1835M] — lower, 0.507
- RGLQVYHKRNA [LRP2_Y2010_R2012K] — lower, 0.539
- TLAHKYHGGGG [HBB_Y146_A141T] — higher, 0.67
- NVGGKYSYLKV [GRM3_Y478] — higher, 1.43
- PELINYHQHNS [BTK_Y361] — higher, 0.767
- SPFMLYQFLKQ [RPAP3_Y567_D564Y_YF] — higher, 1.67
- RFWPRYVKVGS [NOG_Y172] — lower, 0.429
- KAIMTYVPSFF [ACTN4_Y260_S262P_YF] — higher, 0.836
- EASEQHLTKAS [NRCAM_Y739_Y739H] — higher, 0.598
- EACRSYSHVVL [CHST6_Y168] — higher, 2.2
- SDFSSYARTSI [TERT_Y949_YF] — higher, 0.805
- RLYARYFQGDL [PDK3_Y337] — higher, 0.556
- FLAVEYHKPHI [IDS_Y225_G224E] — higher, 0.653
- ETCLAYMEKRI [TEKT1_Y118_R119M] — higher, 0.775
- DFAIVYGTIIL [GPR179_Y460_G455D] — higher, 0.584
- AKGMKYVASKK [MET_Y1194_L1195V] — higher, 0.763
- LWPIWYRCRRP [MRGPRX1_Y130_H133R] — higher, 0.857
- KKMKCYHVGKV [HARS2_Y151_R150C] — higher, 0.954
- PADCRYYAFPQ [GAMT_Y222] — higher, 0.847

target: c-Src SH2; test: as above

Point of comparison: QKKEEYKMALY [F8_Y1990_R1985Q], SH2 binding enrichment 0.48. Against it:
- EKLQKYFRQNP [EHHADH_Y682_YF] — lower, 0.355
- DLVHPYVHKIL [SF3B1_Y570_R568H] — higher, 0.522
- ASKEPYYVRCI [MYO1D_Y585] — higher, 0.481
- MGGSVYFSYPD [HIKESHI_Y55] — higher, 0.843
- FSCLPCGRLAY [SLC52A2_Y305_Y305C] — higher, 1.54
- AFLEDYFTSTK [SRC_Y522_E527K] — higher, 0.553
- ERPIRYLNHQL [CEP152_Y268_Q265P] — higher, 0.488
- SGVSFYINLCQ [IGF2R_Y2025_N2020S_YF] — higher, 1.48
- NTDETYSIDNE [TUBB2B_Y200_C201S] — lower, 0.421
- LKFAIYFEVRE [LAMA2_Y1258_A1261V_YF] — higher, 0.653
- RPSRQYATLDV [SCAMP3_Y35] — higher, 9.6
- TEAGDYKLCFD [TMED1_Y103] — lower, 0.423
- GGPTFYIDTNA [ACTL6A_Y69_YF] — higher, 0.577
- PRPAGYPSMVS [CACNA1C_Y1832_T1835M] — lower, 0.312
- RGLQVYHKRNA [LRP2_Y2010_R2012K] — higher, 0.567
- TLAHKYHGGGG [HBB_Y146_A141T] — higher, 0.558
- NVGGKYSYLKV [GRM3_Y478] — higher, 2.27
- PELINYHQHNS [BTK_Y361] — lower, 0.466
- SPFMLYQFLKQ [RPAP3_Y567_D564Y_YF] — higher, 1.07
- RFWPRYVKVGS [NOG_Y172] — lower, 0.446
- KAIMTYVPSFF [ACTN4_Y260_S262P_YF] — higher, 0.97
- EASEQHLTKAS [NRCAM_Y739_Y739H] — higher, 0.53
- EACRSYSHVVL [CHST6_Y168] — higher, 2.24
- SDFSSYARTSI [TERT_Y949_YF] — higher, 0.586
- RLYARYFQGDL [PDK3_Y337] — higher, 0.549
- FLAVEYHKPHI [IDS_Y225_G224E] — higher, 0.925
- ETCLAYMEKRI [TEKT1_Y118_R119M] — lower, 0.445
- DFAIVYGTIIL [GPR179_Y460_G455D] — lower, 0.343
- AKGMKYVASKK [MET_Y1194_L1195V] — higher, 0.78
- LWPIWYRCRRP [MRGPRX1_Y130_H133R] — lower, 0.421
- KKMKCYHVGKV [HARS2_Y151_R150C] — higher, 1.12
- PADCRYYAFPQ [GAMT_Y222] — higher, 3.02
